Experimental data published in the domain aggregation screens of Martell et al. (2025).

Assay: soluble fraction after stress (log2 fold change); higher = more stays soluble; pooled small domains, quantitative proteomics
Conditions: stress: 50 degC
Procedure, shortened: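 Custom libraries of small protein domains were pooled and measured in a high-throughput format, with quantitative proteomics as the read-out. Each library was stressed at 50°C. The value is the log2 fold change in the amount of each protein that stays soluble after stress, used as a measure of aggregation propensity; higher values mean more of the protein stays soluble.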

Sequence	soluble fraction (log2)
HMDFDLIAIFEEQFARALSPIEINIIKEWKNSNYSDDMIVKALKEAVKSQVFNFRYIERILINWSQNG	-0.387
HMDFDVELTSAGTAKVKVIKAVREATGLGLKEAKDLVDNAPSIVKEGLDEAAANDLKAALEETGASVTL	0.117
HMDFEEGAVKWFNTKKGYGFITRDQGDDIFVHFRNIKAQSRRSLTDGERVTFVVTEGDKGLQADHVSPV	-0.31
HMDFGHWAAHKLEQMSEYRLRHGEAVAIGIALDVLYSVRQGLLARPAAERILSLLERLGFTLFDPELKS	-0.213
HMDFLKSVDLSKYSKVESLILSHLSKGDFDIDDFIRSFSLGTDEVTRAIVSLEIEGIILRKGNRIFRKKS	-0.0402
HMDFMNSEIKKIVEDLKLTLQSLNYTKNEIKSILPVINKETDNLIKKEKYASFENLLRLAMNHLDNN	-0.462
HMDFTPDQIARLDDIISRYKDKPGGLIPVLEEAQVALEYLPIGVQKRIAKGLNLPLSRVYGVVTFYSFFTM	-0.0911
HMDFVKGDTVVFIDAFMPDHLMTIHKVQGEGILLDGNHKFALAHLIRHASTVELNAKRRLSLTEQS	-2.05
HMDGASLLDIDGDGKVTPTIDGLLLMRWQFGTRGAALIGGISFPAGALRTTVNAIELHMRRLSETT	-0.844
HMDGDVAVKGGDGVLEVRLANAANVRVYNLAGRLMADYTGTELHMPLPKGVYMVVAGDNRTKVVV	0.074
HMDGEINPYTGREYVTNSVRMHPRRIGYVQVYSRKDHKWTDMTEWAFLGEQERKKVLLGKAYEPPVYL	-1.55
HMDGEMRRKRILQLLSEQTKPLSGTALAKQFGVSRQVIVQDIALLKSKEPAIISTYRGYVLGR	-0.607
HMDGFAEFWSAYPKKVGKGAAEASWRKHRPPLQTVLDAVKRQAESDQWRKDGGQFIPNPATWLNQKRWEDD	0.0948
HMDGIIIPDVSGKSYAEAVATLNEKGFKVEKGEDAGSSLAKDLVSYTNPAAGNRAKSGATISVFVSTGANA	0.17
HMDGKTALQEIVASSGWSPPEYKVSESGPDHDKDFVAYAIVNGVAYPEGHGKSKREAEQVAARIAFEALSK	-0.18
HMDGMRASDMVRAALAGAGKTQKELAEHMGWTPQNLSGRLKNNSLTFDELSKALHFAGYEVSMSDANGAG	0.0567
HMDGNVPSVEGKPLSGAKYILETYGYKTGTVTEVNSEDVPAGIVISQNPARGTTLANGGSVNLQVSLG	0.321
HMDGPGAGGRFLAEDLGTGKMTLEALQRHYVTLVYSRTGKYEETARRLEIDRRTVKKYLDEELLAELRET	0.084
HMDGQGIRSITPEYYLSDSATKMPDASSSGWKSVPDDYIDKHYYWVRSKILWDDGTYTTTTPVL	-0.364
HMDGRVQATAEKLRAALDRLARSSVGSPMIERQLTVAALAREARVGRNAIYANHRDILDELIRVRQQRRA	0.144
HMDGTAKVAHMLVNELETFNRLKKHEIAYMLHIQPETLSRILNKLTRNGTIEIEKNSVVILNIQELKEIY	-1.55
HMDGVNRDKIEYRLDDLYYLKGSDAPYTGKVFEEWSGQQRVETNYIDGKLDGLSESWHENGQKASEVNY	0.345
HMDHFLRRFQVEGLNLEKLLRLAAEREMDLLQVRRSGRRMTGLVAEKRLPELEELAAQGGWALRLGEY	-0.268
HMDHSSLIKKLRLERGLSQKKLAQGISQRSTLASFENNATKISYNILIQYLDRMNVTLEEYQFMLDGNNL	-2.06
HMDHWQSVNSALELLEVSRRTLYDYISRKKLQTKKEGKYRYVWIDDDVIEEIKTSKSAYIEINN	-2.19

Sequence	soluble fraction (log2)
HMDIAATTVKQKIRTLLADEDAARPLSDQKIADALAEDGIDVARRTVAKYREELGIEPSWARKR	0.0398
HMDIDLGAVEEQAVKGSGPGGQKMNKTSSGVLLRYRLGEELVLVKWTRERQHSLNRFLALRELVDEIEAR	≥ 0.62
HMDIFFEKIFNILIGYNQNQENLISEKSILNFHLSHKSNSNFEYIPDEKTPKYIWKYLSNYNLLE	-0.359
HMDIFLPDVKGYDLIPSFRRHLPDIDVIAMTGYNTRALESAVRQQDVLFYMIKPFEASQLKEILEHLVK	-0.221
HMDIKEIIKNRRIELGLTLKEVATAVGVSEGTVSRWESGNITNMKRNKIAALAKTLQIPPTTI	-0.259
HMDIKKHISATLKREMEKRGLNFMEFSTELGIPRTTLQGYLKGTSSPQADSLEELADKLGISPAELVSG	0.15
HMDIMLLLYKNIKKRRLEIGMSQEELAQKTGYTSRSSIAKIEKGEVDLQLSKIKLFANALRVSQSELMG	-3.39
HMDIMTVGERVKKLAEKQGISLRELAKKAELSYNTVYSITRRGSERVAPDTISRLANALGVNVNELT	0.0708
HMDINEIILKVASEKKTFKTSDVLEALDNNYTKQHVSALISAMVKKGILVKAGSTAKSTYALPENASLL	-0.264
HMDINIETLNYYVGKAKIPLSELRISVKNIDLFLSGEKQPTFNQLSSIAKKLNIPTGLLLLDESIEV	-2.74
HMDIPGITAVKPQAAFYMFPKIDVKKFNIVNDEKFALDLLQDKKILIVQGSGFNWKQPDHFRVV	-0.103
HMDIRVAHVDDDMSFGEAFAQARSQVGPGGVFEWHGKLYGTYTAEEWASMSPAERSQYQQAVFN	-0.0545
HMDIVLPFSFAKRHGVVLSERQGETELLYLKGLPVRVLAEARRVLRQEFTVRQVEQAVFDKALSESYQN	-1.04
HMDIYLDDINRKILHLLSQGVKTKSLRDYIDLSMSAIEKRKKHLKDLFLIEDGKDETLLSEARKKGF	-0.672
HMDKAGWLPARVRLADYPALKQLAWQVQGVDELTPREALGIYERNWRHLDEAALLPRERNLIDALRLAFG	-0.207
HMDKEQVTFIFRDIDIALRSLDYPIKDIKNTLNIIKSEFSNSKSTELNEQKINFENILKEAISILENND	-0.627
HMDKFKDVGARIREARKVQKLSQADLAERLQISTSHMSDIENGKKNIGLDIFMRLTEALQVSADWLL	-0.124
HMDKFTYVVKKEDEQYQIKDILRHNFTFSSRLRKKLKQNNSIFLNGAETVGWATPKEGDIISVRLP	-0.433
HMDKKEFGKRLKNLRIRNKMSQQAMADSLGYTSRSTINKIEEGINEMSYDKIVRLMELYGLSRPDLGLEPI	-0.154
HMDKKTMFNEALAKLVSYATAHDNLITMEDVKSFFNGLIDDDSQYKLIYDYLSINKIEIKGFT	0.2
HMDKLEKRILDYLLQKSAIDGSTILKISHREMAMDLGTAREVVTRILKKLETGGFVRQGENYLEILK	-0.145
HMDKPIFTLRENEVLYWASMGKTYAEIATIVGISVRTVKFHMGNVVSKLGVSNARQAIRLGVELDLITPMQ	-2
HMDKSFYETFEKIGHGDFDKGLNHVWQHANDGNGTATLLLSKLFLEFGDLDNFEKYLNISAEQSNPVAMKI	-0.305
HMDKSNEVLMNHYRKQEINQAKKRLEEEKMSIIQVLQLTNKEVITTDELLEALYISKEQLLDEIINTTQ	-0.0889
HMDKSPVLQLNRDVPAGQQISADDFRTVEIGADGAFRSVPSSDLNAMVGSYAKVRLIAGTLLAREALQSG	0.0412

Sequence	soluble fraction (log2)
HMDKSRPVLRVGDSGDWVSKLQTALLEFGYRVAVDGVFGEHTKSAVVHFQNGRRLIADGVVGNLTWDALL	-2.31
HMDKWFPVSSDHKVQVGDYLRTADGLVKVEATHNEYGTFYGKIITAIHDDVVKGETYEYRIDDVQVLA	-0.0324
HMDLAPLQTVDIAINYAKAAELAAILKSSEGGILSDRGGVTVDERTNTLLIRDTLESIDEARKTI	0.122
HMDLATQHAAKVNAAILAARRFEREGSWRQVAAKYSEALQLMPGNEQASRGYQQAMAMLDERD	0.0786
HMDLDSGVAVLRTLMSQHNLQTDDFQNEIGGKSMVSMILNGTRKLSKNHIQALSGRFNLSPALFF	-0.962
HMDLEELSNKMNNVFESLSSDLRDIIIMSDIEGLSYEEISHKINIPIGTVRSRLHRARDLMVRVIKEN	-0.513
HMDLGEQIIEKLRAAGGFLAITDKSPAEEIYELFATSKKNYKKAVGGLYKKGLLVIEDDGIRLTPAGR	-0.102
HMDLHERISSVLLGTGKSNDELAQILGVNKNTISAYKNKHGDLKGIVLEGIVKHFDINPVWLLTGSGTR	-0.54
HMDLKSLEFAIVENVQRHDLNPLEEAQGYKRLIDEFSYDQDKVSKFIGKSRSYITNSLRLLNLPLEVLEF	-0.049
HMDLKTNSQLINELEKKIKRPFDREIKNYLNKNLSTDRMISNNEIDKIILFYSGNNEIPNIEKISLILNDN	-0.112
HMDLPATVPNLEGLTEVTARNKLTVAGLSLGEVKEVESDKEKGTVVGQSIAYGKRVTKGTKVDIEISSGK	0.0361
HMDLPDTLSMPNALKVLEDNGFPTSKAKLYKMTSQEQIPFMKYGNKLVFSRKALIEWAHKQLV	-1.1
HMDLPREKRIEIGLTYIYGIGLKTSQKILAATGIDPNTRVKDLDETTVSKLREYIDHNYRVEGELRS	-0.504
HMDLSLQTFNELKTELTNNKITIDQFSEKINEFDITSDIFEISRELFLDDTLSLEDYLVVIENVLIN	-0.45
HMDLSQTVQAKALARVNVREGAGTHFKSLGKLKKGELLPVFRVGNSWASIWWKGRVAYVHTDYLRFESA	-0.847
HMDLTKLFDHDSEYGKSYVFGKITDEMIARAEQTLGYRMPASYIELLKVQNGGMISDELDESWLTTIYGIG	-0.24
HMDMAYEVVKAFHDLQDYKDVKGGKVYHHYDVGDTYPRQGLDPAPDETRIEELLSSGNAQGVPLIAEV	0.0503
HMDMNVQNYRGLSLDRAKKLISDLGLKYEVVGTGDSVVKQVPSSGSRMSKENGRIILYTENVEDA	0.00608
HMDMPLIGTAIRGWGIISPAQQETLIKMSILTVEDLAAINDEGIKRIGMGGLDLKNKAKAWLLQLK	-0.751
HMDMRLADLIGRDGITITFMRPSGKVEIDGEIYDAVSDVGLIDKNEEVEVIKFENAQLVVTKKNKN	-0.0621
HMDMSVDQFNQGIRGSELYQQFIHGRGLQQPDGKTREWTDADRNAWRRTLEASGVRIPDGMKIDNAGNLNE	0.275
HMDNEIIEEEKITTLMITHNMRDAIKYGNRLIMLNEGRVIFDISGEEKKNLTVQELLEKFEK	-0.118
HMDNEIMYPIQINGKVRAELFVSTERAMDKQYVLEQAKANEKIQGYLEGNRLVKEIFVPKRIVNLVIAP	0.197
HMDNIEIGNRIREIRIKKNISVFELAYRTKTSQSHIYQIEGGSQNMSIELLFKIADTLETDPNTILGV	-3.78
HMDNIPAHIKAKIINYVNRNYPGAIIKDIERKSNGRYEAEIVYNNREYDLLFDAQGNFISASLDDK	0.123
